Laboratory results published in the supplement of paper PMC9170038.

What was measured:
MS2 coat protein [1] = test: apparent KD of MS2 coat protein, switch ON state; designed switch direction (-1 OFF switch, 1 ON switch): 1; higher = weaker reporter binding; settings: FMN input: 0 or 200 uM; Eterna round: R93 (includes R88 designs)
In short: (§1)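 Designed RNA switches, transcribed on-chip from Illumina sequencing clusters, were titrated with SNAP-549-labelled MS2 coat protein from 0.7 or 1.5 nM to 3 µM in twofold steps. The solution was 100 mM Tris-HCl pH 7.5, 80 mM KCl, 4 mM MgCl2, with constant ligand or without it. Apparent KD is the median over each design's normalised cluster binding-curve fits.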

MS2 coat protein [2] = test: apparent KD of MS2 coat protein, switch OFF state (with FMN for OFF switches, without FMN for ON switches); designed switch direction (-1 OFF switch, 1 ON switch): 1; higher = weaker reporter binding; settings: FMN input: 0 or 200 uM; Eterna round: R93 (includes R88 designs)
In short: as §1

Sequence | apparent KD of MS2 coat protein (MS2 coat protein [1]) | apparent KD of MS2 coat protein (MS2 coat protein [2])
GAAAUAAAAACACAGGAUAUCCAAAAGAAAACAUGAGGAUCACCCAUGUAAAGAAAAUAAAAAUGGGAGAAGGGUGAAAUAAAAA [Mat - Same State 2 - JL mod - D27] | 30.4 nM | 33.8 nM
GGAACACAUGAGGAUCACCCAUGUCAAGGAGGUCGAGGAUAUAGGAAAAAAAAAAAAAAAUUAGAAGGUGAGGAGG [V1] | 169 nM | 139 nM
GGAAGACAUGAGGAUCACCCAUGUGGGAAUAUGGGAGGAUAUACAAAGACGAGAGUCAGAGUAGAAGGCCUAGGAA [salish99-ss1-99] | 37.8 nM | 176 nM
AAAGUACAUGAGGAUCACCCAUGUUGAAAAAAUCGAGGAUAUGCGAAAAAAAAAAAAAAAGCAGAAGGUGAAAAAA [I 'NO' this state well 2] | 24.4 nM | 38.6 nM
CCUAGACAUGAGGAUCACCCAUGUCGAACAAACAAAGGAUAUGGGAGCCGAAGAAGGCUAUUAGAAGGUUGCAAAU [Aisedbi] | 29.4 nM | 34 nM
AAAAAACAUGAGGAUCACCCAUGUAAUAAAACGUCAGGAUAUUGAUUUUAUUAUUUAUUGCAAGAAGGGACAAAAA [Same State 1 - Omei 2] | 20.4 nM | 40.3 nM
AGAAAUAAAAGAGAGGAUAUCCAAAAGAAAACAUGAGGAUCACCCAUGUAGACGAAAGUCAAAUGGGAGAAGGCUCAAAAUAAAG [80% More Helter Skelter 2 + Hairpin] | 61.4 nM | 98.7 nM
GAAAUAAAAACACAGGAUAUCCAAAAGAAAACAUGAGGAUCACCCAUGUAAAGAAAAUAAAAAUGGGAGAAGGGUGAAAAUAAAG [Mat - Same State 2 - JL mod - D25] | 26.4 nM | 93.8 nM
AAUAUAUUAAGUGAGGAUAUCAAGAAAAAAACAUGAGGAUCACCCAUGUGGGAAACACAAUAGGGUGAGAAGGUACUUAAUAUAU [Samwise Clockwise 18 - Jieux - Same State 2] | 10200 nM | 8.08 nM
AAAGUACAUGAGGAUCACCCAUGUUGGAACAAAGCAGGAUAUGUACAAAAGGAAAUAAAUACAGAAGGGCUAAGAA [Same State #2] | 20 nM | 32.9 nM
AAAAAAAAAAGUGAGGAUAUGUGAUCGGUGACAUGAGGAUCACCCAUGUGAGGCCUUCGGGCCAAGCAGAAGGUAUAAAAAAAAA [Same State 2-VII] | 105 nM | 29.4 nM
AAAUAUAAAAGAUAGGAUAUACUAAAAUAAACAUGAGGAUCACCCAUGUAAAAAAAAAAACUCAUGUAGAAGGAUCAAAUAUAAA [ss2 8th] | 33.4 nM | 38.1 nM
ACAAAACAUGAGGAUCACCCAUGUCAAGCUAAUCAAGGAUAUGGGAGCGGUCCGGUGCGAUCAGAAGGUGAUUAGA [Gecelear] | 99 nM | 53.2 nM
CGGGCCCGGGCGCAGGAUAUCUGAAAAAAAACAUGAGGAUCACCCAUGUGUGGGAAAAAAAAAAAAGAGAAGGGCGCCCGGGCCC [Natural State 2 -38.15 -4 kcal] | 29.4 nM | 48.6 nM
AGAAAAUAUGGGUAGGAUAUAUAAAGAGAAACAUGAGGAUCACCCAUGUAAAGACGAGAGUCAAAAUAGAAGGACUAAAGAAAGAA [Meechl MS2 SS2 2] | 86.2 nM | 151 nM
AAAAAACAUGAGGAUCACCCAUGUAAAAAUAUCACAGGAUAUGGAAACACGAAAGUGAAACCAGAAGGGUGAAAAG [77%, Mat - Mod of Eli, 12] | 20.1 nM | 44.1 nM
AGGAAACAUGAGGAUCACCCAUGUAAAAAAGUGGGAGGAUAUACUAGAAGAAACAAAAUAGUAGAAGGCCUAAAAA [75%, Ex sub1, 32] | 9.99 nM | 108 nM
GAGAAACAUGAGGAUCACCCAUGUAGAAAUAUGGGAGGAUAUACAAAGACGAGAGUCAAAGUAGAAGGCCUAGAAG [77%, Mat - Mod of Eli - With 3 more G's] | 18.8 nM | 53.6 nM
AUAAAUAAAAUAGAGGAUAUCCAAAACAAAACAUGAGGAUCACCCAUGUAAAAGAAAAUAAAAUGGGAGAAGGCUACAAAUAAAU [SS2 M 3] | 20.1 nM | 30.5 nM

Sequence | apparent KD of MS2 coat protein (MS2 coat protein [1]) | apparent KD of MS2 coat protein (MS2 coat protein [2])
AGGAAACAUGAGGAUCACCCAUGUAAAAAUAUGGAAGGAUAUGGAAACACGAAAGUGAAACCAGAAGGUCCGAAAA [77%, Mat - Mod of Eli, 19] | 13.1 nM | 23.1 nM
GCGAAUAUGGGUUAGGAUAUGCGCGCAUGUACAUGAGGAUCACCCAUGUUUACGGGCGCCUUUGAGCAGAAGGAGCUAAUCAACGC [SameState2Try2_Neo] | 21.5 nM | 24.2 nM
UUUAGGAAGAGAGAGGAUAUCCAAAGGAAAACAUGAGGAUCACCCAUGUAAAAGGUAGGAAAUUGGGAGAAGGCUCAAGAGAGAG [salish99-ss2-078] | 5.84 nM | 16.5 nM
UAAAAACAUGAGGAUCACCCAUGUGAGAACAUGGGAGGAUAUACAAGGACGAAAGUCAAAGUAGAAGGCCUAAAAU [Mat - Same State 1 - Mod - D176] | 99.8 nM | 29.3 nM
AAGAAACAUGAGGAUCACCCAUGUCGAGAGAGACGAGGAUAUCUGAAUCGAUUAGAUUACGGAGAAGGCGUGAAAA [Same State 1.2 (Same State of Confusion2 - minimal change )] | 18.3 nM | 30.4 nM
GGAAAUAAAAGAGAGGAUAUCCAAAAGGAAACAUGAGGAUCACCCAUGUAAAAGAAAGGAAAAUGGGAGAAGGCUCAAAAUAAAG [salish99-ss2-004] | 44.2 nM | 56.1 nM
CAACAGAGAGGACAGGAUAUGUCGUGAUAAACAUGAGGAUCACCCAUGUGAGACAUCACGUAGUCGCAGAAGGGUCCCGUCUUAC [Esleerandi] | 15.3 nM | 18.8 nM
AAUAACUAUAACUAGGAUAUCGGAAAUAAGACAUGAGGAUCACCCAUGUAAUAAGACAAAAUAUACGAGAAGGAGUAGGGUGAAA [JR_SS002_Sub012] | 61.2 nM | 53.2 nM
GGAAAGAAAAGCGAGGAUAUGCUAGGUAAUACAUGAGGAUCACCCAUGUUUUUUUUUAACAAAUUGCAGAAGGCGCAAGAAAGAAA [Ungainly] | 16.5 nM | 18.2 nM
AAAAAAAAAAACUAGGAUAUUUAACGGACAACAUGAGGAUCACCCAUGUCACAAAAAAAAAUAGUAAAGAAGGAGUAAAAAAAAAA [Same State 2] | 25 nM | 23.8 nM
GAAAAACAUGAGGAUCACCCAUGUGAGAACAUGGGAGGAUAUACGAGGACGAAAGUCAAAGUAGAAGGCCUAAGAG [Garnet 86] | 164 nM | 30 nM
GAAAAACAUGAGGAUCACCCAUGUAGAGAUAUGGGAGGAUAUACGAAGACGAAAGACGAGGUAGAAGGCCUAAAAG [Garnet 57] | 66.1 nM | 218 nM
AGAAAUAAAAUGGAGGAUAUCCAAAAGAAAACAUGAGGAUCACCCAUGUAAAAGAAAAUAAAAUGGGAGAAGGCCAAAAAUAAAG | 23 nM | 47.2 nM
AAAAUAUAAAGGAAGGAUAUCCAAAGGACUACAUGAGGAUCACCCAUGUAAAGAAAGAAUAAGUGGGAGAAGGUCCAAAUAAUAA [Designing denovo 31] | 27 nM | 68.3 nM
AAGAAACAUGAGGAUCACCCAUGUGAUAAUAUGGGAGGAUAUACAAAGACGAAAGUCGAAGUAGAAGGCCUAUGAA [Garnet 43] | 36.8 nM | 62 nM
AAAUAAAUGACUAAGGAUAUCUCUGAGAAAACAUGAGGAUCACCCAUGUAAUAAUAAAAAGGGUGAGAGAAGGUAGUCAACAAAC [Same State 2.1 (Pariah 4 -changed stack on 9nt hairpin)] | 18 nM | 68 nM
GAACCACAUGAGGAUCACCCAUGUCUAAGAAUGGGAGGAUAUGCACAAAAGGAAAUAACUGCAGAAGGCCUACGAA [62%, Redo, 2] | 23.2 nM | 129 nM
AUAUAAAUAAGGUAGGAUAUACUAAAGUAAACAUGAGGAUCACCCAUGUAAAGAAAGAAACUCAUGUAGAAGGACCAUAUAUAUA [viburnum 1] | 24.4 nM | 264 nM
AAAGAAAAACUAGAGGAUAUCCGAGUGGUAACAUGAGGAUCACCCAUGUGAAGAAAGGAGCGUGAGGAGAAGGCUAGAAGAAAAA [JL Nando mod 24] | 11 nM | 146 nM
